Measured values published in article PMC3727927 (Molecular Biology of the Cell, 2013).

Target: the molecule itself
Assay: light scattering

B1: Bacillus subtilis MreB A277Q K305D double mutant, Strep-tagged (natural protein)
chain: MFGIGARDLGIDLGTANTLVFVKGKGIVVREPSVVALQTDTKSIVAVGNDAKNMIGRTPGNVVALRPMKDGVIADYETTATMMKYYINQAIKNKGMFARKPYVMVCVPSGITAVEERAVIDATRQAGARDAYPIEEPFAAAIGANLPVWEPTGSMVVDIGGGTTEVAIISLGGIVTSQSIRVAGDEMDDAIINYIRKTYNLMIGDRTAEAIKMEIGSAEAPEESDNMEIRGRDLLTGLPKTIEITGKEISNALRDTVSTIVEAVKSTLEKTPPELAQDIMDRGIVLTGGGALLRNLDKVISEETDMPVLIAEDPLDCVAIGTGKALEHIHLFKGKTR
binding result: binds
